{
  "source": "patent US5489670A",
  "about": "“Human uroguanylin” (G. D. Searle & Co., priority 1993, dated 1996)",
  "key": {"GC-C in T84 cells": {"molecular_target": "T1, GC-C in T84 cells (Homo sapiens, UniProt P25092)", "T1 construct": "host or cells: T84 human colon carcinoma cells", "T1 sequence (P25092 24-1073)": "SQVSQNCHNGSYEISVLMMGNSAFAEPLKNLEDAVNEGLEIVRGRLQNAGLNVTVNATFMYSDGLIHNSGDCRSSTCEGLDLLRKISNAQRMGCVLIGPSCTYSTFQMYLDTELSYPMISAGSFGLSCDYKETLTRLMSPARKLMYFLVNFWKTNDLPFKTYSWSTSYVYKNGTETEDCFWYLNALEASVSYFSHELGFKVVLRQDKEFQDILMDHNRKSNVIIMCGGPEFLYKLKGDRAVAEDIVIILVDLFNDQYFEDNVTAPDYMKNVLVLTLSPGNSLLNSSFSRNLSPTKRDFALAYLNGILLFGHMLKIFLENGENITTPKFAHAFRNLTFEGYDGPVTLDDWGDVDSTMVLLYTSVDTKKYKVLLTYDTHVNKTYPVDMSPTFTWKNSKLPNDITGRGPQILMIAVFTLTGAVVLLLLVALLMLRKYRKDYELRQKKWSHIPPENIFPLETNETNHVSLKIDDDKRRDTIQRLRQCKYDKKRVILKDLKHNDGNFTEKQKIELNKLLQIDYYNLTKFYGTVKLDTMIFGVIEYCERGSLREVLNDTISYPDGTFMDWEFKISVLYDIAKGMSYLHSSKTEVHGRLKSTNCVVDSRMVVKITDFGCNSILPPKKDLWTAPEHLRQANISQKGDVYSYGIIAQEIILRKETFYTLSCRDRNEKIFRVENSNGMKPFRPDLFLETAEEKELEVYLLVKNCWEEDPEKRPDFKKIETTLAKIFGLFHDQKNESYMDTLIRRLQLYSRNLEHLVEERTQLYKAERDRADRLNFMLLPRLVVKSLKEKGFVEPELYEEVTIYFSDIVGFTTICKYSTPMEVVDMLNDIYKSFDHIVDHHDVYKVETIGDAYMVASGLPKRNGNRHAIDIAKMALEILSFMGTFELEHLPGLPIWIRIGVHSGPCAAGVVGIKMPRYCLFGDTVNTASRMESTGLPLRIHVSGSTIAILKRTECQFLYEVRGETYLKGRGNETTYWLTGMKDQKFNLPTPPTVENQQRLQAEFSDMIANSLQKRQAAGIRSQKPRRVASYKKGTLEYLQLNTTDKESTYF", "experiment": "Cyclic GMP accumulation in T84 cells", "format": "cell-based", "conditions": "for bioactivity of purified urine peaks in T84 cell cyclic GMP bioassay: peptides purified from human urine, microbore HPLC C8", "procedure": "(§1) FIG. 3(a) and (b). FIG. 3(a) Concentration-response effect of synthetic human uroguanylin, human guanylin and E. coli ST5-18 (STa) on cyclic GMP levels in T84 cells. The cells were incubated with various concentrations of ligands for 30 min. Values represent mean±SE (n=4). FIG. 3(b) Displacement of ^125 I-STa specific binding from T84 cells by human uroguanylin, human guanylin and STa. Cells were incubated for 30 min at 37° C. with labeled STa and indicated concentrations of ligands. Specific binding (%) was determined by dividing the specifically bound ^125 I-STa at each ligand concentration by the specifically bound ^125 I-STa in the absence of ligands. Each determination represents the mean of four wells examined.\nCell Culture. A cultured human colon carcinoma cell line (T84) was obtained from the American Type Culture Collection (Rockville, Maryland) (ATCC No. CCL 248) at passage 52. Cells were grown to confluency in 24-well culture plates with a 1:1 mixture of Ham's F12 medium and Dulbecco's modified Eagle's medium (DMEM), supplemented with 10% fetal calf serum, 100 IU/ml penicillin, and 100 μg/ml streptomycin. Cells were used at passages 54-60.\nCyclic GMP determination. Monolayers of T84 cells in 24-well plates were washed twice with 1 ml/well DMEM, then incubated at 37° C. for 10 min with 0.5 ml DMEM containing 1 mM isobutylmethylxanthine, a phosphodiesterase inhibitor. Agents and fractions were then added for the indicated time as described in the results section, below. The media was then aspirated and the reaction terminated by the addition of ice cold 0.5 ml of 0.1N HC1. Aliquots were then evaporated to dryness under nitrogen and then resuspended in 5 mM sodium acetate buffer, pH 6.4. The samples were then measured for cyclic GMP by conventional RIA as described by Steiner et al. (13)."}, "rat proximal colon": {"test_system": "rat proximal colon", "experiment": "Short-circuit current (Isc) in rat proximal colon, Ussing chamber", "conditions": "0.2 μM, mucosal addition", "procedure": "FIG. 4. Effect of synthetic human uroguanylin on short-circuit current (Isc) of rat colon. Effect of human uroguanylin (0.2 μM) on Isc across rat proximal colon after a mucosal addition. The response is characteristic of results from 3 other experiments.\nMeasurement of Short-Circuit Current (ISc) in Rat Colon. Rat proximal colon tissue, consisting of only mucosa and submucosa, was mounted between two Ussing half-chambers and bathed on both sides similar to previously reported (3). Electrical measurements were monitored with an automatic voltage clamp, and direct connecting voltage-and current-passing electrodes were used to measure trans epithelial potential difference and Isc. Tissues were equilibrated under short-circuit conditions until Isc had stabilized."}, "receptors on T84 cells": {"molecular_target": "T2, receptors on T84 cells (Homo sapiens, UniProt P25092)", "T2 construct": "host or cells: T84 human colon carcinoma cells", "T2 sequence (P25092 24-1073)": "as above", "experiment": "125I-ST radioligand competitive binding assay on T84 cells", "conditions": "30 min at 37° C., pH 5.5", "procedure": "as §1\nRadioligand Binding Assay. ^125 I-labeled ST5-18 (^125 I-ST) was prepared by the Iodo-Gen method as previously described (3). T84 cell monolayers were washed two times with 1.0 ml per well of ice-cold binding assay buffer (Earle's medium containing 25 mM 2[N-Morpholino]ethanesulfonic acid (MES), pH 5.5). The cells were incubated for 30 min at 37° C. in 0.5 ml per well of binding assay buffer with ^125 I-ST (100,000 cpm per well) and unlabeled peptides. […] This volume was transferred to tubes and assayed for radioactivity by a multigamma counter. Results are expressed as the percentage specifically bound."}},
  "note": "No end group written: not given here.",
  "data": [
    {"substance": "DDCELCVNVACTGCL [peak 2, peptide from human urine lacking the N-terminal asparagine, likely a degradation product of peak 1]", "values": [
      {"measurement": "bioactivity of purified urine peaks in T84 cell cyclic GMP bioassay", "setting": "GC-C in T84 cells", "value": "bioactive"}
    ]},
    {"substance": "NDDCELCVNVACTGCL [human uroguanylin, sedecapeptide, endogenous regulator of intestinal guanylate cyclase, isolated from human urine and chemically synthesized]", "values": [
      {"measurement": "effect on short-circuit current (Isc) of rat proximal colon", "setting": "rat proximal colon", "value": "sustained rise in Isc"},
      {"measurement": "effect on T84 cell cyclic GMP levels", "setting": "GC-C in T84 cells; T84 cells, 30 min incubation with ligand, 1 mM isobutylmethylxanthine", "value": "concentration-dependent increase"},
      {"measurement": "relative potency for activation of GC-C in T84 cells", "setting": "GC-C in T84 cells; T84 cells, cyclic GMP, concentration-response", "value": "more potent than human guanylin, but less potent than ST"},
      {"measurement": "bioactivity of purified urine peaks in T84 cell cyclic GMP bioassay", "setting": "GC-C in T84 cells", "value": "bioactive"}
    ]},
    {"substance": "human guanylin: first known endogenous activator of intestinal guanylate cyclase (PGTCEICAYAACTGC; ends and bridges not checked; cysteine pairing not given here; UniProt Q02747 101-115, looked up)", "values": [
      {"measurement": "relative affinity, displacement of 125I-ST5-18 specific binding from T84 cells", "setting": "receptors on T84 cells", "value": "much lower affinity"}
    ]}
  ]
}
